In PMC9232852 (2022) one finds Kd data, which are given here for two molecules.

In assay [1] the target is T1, BTN2A1 ID309 (Homo sapiens, UniProt Q7KYR7).
T1 chain: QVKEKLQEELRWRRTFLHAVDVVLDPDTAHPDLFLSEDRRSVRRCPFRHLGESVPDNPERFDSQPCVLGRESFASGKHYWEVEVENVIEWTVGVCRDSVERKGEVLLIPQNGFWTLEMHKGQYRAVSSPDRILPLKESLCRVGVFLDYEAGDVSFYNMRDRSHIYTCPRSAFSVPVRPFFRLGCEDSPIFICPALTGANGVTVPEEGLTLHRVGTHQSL
Nature of the assay: ITC. (In general: ITC needs no label: the signal is the heat of the interaction.)

In assay [2] the target is T2, BTN2A1 ID271 (Homo sapiens, UniProt Q7KYR7).
T2 chain: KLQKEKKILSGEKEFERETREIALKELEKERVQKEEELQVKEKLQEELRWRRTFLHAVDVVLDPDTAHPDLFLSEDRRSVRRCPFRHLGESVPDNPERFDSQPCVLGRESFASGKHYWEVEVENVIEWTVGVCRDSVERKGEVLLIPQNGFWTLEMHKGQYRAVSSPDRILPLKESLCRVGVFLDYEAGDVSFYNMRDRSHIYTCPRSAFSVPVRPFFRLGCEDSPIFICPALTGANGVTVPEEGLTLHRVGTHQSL
Nature of the assay: ITC.

B1: BTN3A1 BFI (full intracellular domain) (protein)
chain: not shown
modifications: HMBPP
For orientation: Kd means the free concentration of one partner at which half of the binding sites on the other are occupied at equilibrium, for simple one-to-one binding. A high value points to lower affinity. Take B1: the Kd in assay [1] was 674 nM; in assay [2], 886 nM.

B2: BTN3A1 B30.2 (protein)
chain: not shown
modifications: HMBPP
For B2, binding in assay [2] was characterised by a dissociation constant (Kd) of 463 nM.
